Where a chain is given by its changes, count along the chain named.

In the experiment the test system is PP2A-B55α. Kind of experiment: Single alanine mutational scan, YFP-tagged interactors immunoprecipitated from HeLa cells, Western blot. It counts as binding, human. On the procedure:
Standard cloning techniques were used throughout. Point mutations were introduced by whole plasmid polymerase chain reaction (PCR). All constructs were fully sequenced. Synthetic DNA was purchased from GeneArt, Life Technologies and cloned into pcDNA5/FRT/TO (Invitrogen) expression vector containing YFP, resulting in the indicated YFP fusion proteins. These constructs were transiently transfected into HeLa cells 24 hours before harvesting cells. Cells were lysed in lysis buffer [50 mM tris-HCl (pH 7.5), 50 mM NaCl, 1 mM EDTA, 1 mM […], and 0.1% NP-40]. Complexes were immunoprecipitated at 4°C in lysis buffer with green fluorescent protein (GFP)–Trap (ChromoTek) and washed in lysis buffer. Precipitated protein complexes were washed three times in lysis buffer, eluted in 2× SDS sample buffer, and subjected to Western blotting or MS as indicated.

The mark [1] stands for this setting: single alanine mutant of YFP-tagged PME1.
The mark [2] stands for this setting: single alanine mutant of YFP-tagged IER2.

B1: PME1 M8: PME1, M8 to alanine (protein, UniProt Q9Y570 2-386, looked up, variant M8A)
Protein phosphatase …: SALEKSAHLGRLPSRPPLPGSGGSQSGAKMRMGPGRKRDFSPVPWSQYFESMEDVEVENETGKDTFRVYKSGSEGPVLLLLHGGGHSALSWAVFTAAIISRVQCRIVALDLRSHGETKVKNPEDLSAETMAKDVGNVVEAMYGDLPPPIMLIGHSMGGAIAVHTASSNLVPSLLGLCMIDVVEGTAMDALNSMQNFLRGRPKTFKSLENAIEWSVKSGQIRNLESARVSMVGQVKQCEGITSPEGSKSIVEGIIEEEEEDEEGSESISKRKKEDDMETKKDHPYTWRIELAKTEKYWDGWFRGLSNLFLSCPIPKLLLLAGVDRLDKDLTIGQMQGKFQMQVLPQCGHAVHEDAPDKVAEAVATFLIRHRFAEPIGGFQCVFPGC
B1 returned an Experimental % binding under setting [1] of 2%.

B2: PME1 L10: PME1, L10 to alanine (protein, UniProt Q9Y570 2-386, looked up, variant L10A)
Protein phosphatase …: B1 Protein phosphatase … with A7M, L9A
In turn, B2 showed an Experimental % binding under setting [1] of 52%.

B3: PME1 L4: PME1, L4 to alanine (protein, UniProt Q9Y570 2-386, looked up, variant L4A)
Protein phosphatase …: B1 Protein phosphatase … with L3A, A7M
Regarding B3, the Experimental % binding under setting [1] came to 1%.

B4: PME1 K6: PME1, K6 to alanine (protein, UniProt Q9Y570 2-386, looked up, variant K6A)
Protein phosphatase …: B1 Protein phosphatase … with K5A, A7M
Regarding B4, under setting [1], the Experimental % binding is 2%.

B5: PME1 R12: PME1, R12 to alanine (protein, UniProt Q9Y570 2-386, looked up, variant R12A)
Protein phosphatase …: B1 Protein phosphatase … with A7M, R11A
Turning to B5, the Experimental % binding under setting [1] turned out to be 10%.

B6: PME1 S7: PME1, S7 to alanine (protein, UniProt Q9Y570 2-386, looked up, variant S7A)
Protein phosphatase …: B1 Protein phosphatase … with S6A, A7M
With B6, under setting [1], the Experimental % binding was 220%.

B7: PME1 G11: PME1, G11 to alanine (protein, UniProt Q9Y570 2-386, looked up, variant G11A)
Protein phosphatase …: B1 Protein phosphatase … with A7M, G10A
B7 displayed an Experimental % binding under setting [1] of 108%.

B8: PME1 E5: PME1, E5 to alanine (protein, UniProt Q9Y570 2-386, looked up, variant E5A)
Protein phosphatase …: B1 Protein phosphatase … with E4A, A7M
With B8, the Experimental % binding under setting [1] is 108%.

B9: PME1 H9: PME1, H9 to alanine (protein, UniProt Q9Y570 2-386, looked up, variant H9A)
Protein phosphatase …: B1 Protein phosphatase … with A7M, H8A
B9 displayed an Experimental % binding under setting [1] of 88%.

B10: IER2 S14: IER2, S14 to alanine (protein, UniProt Q9BTL4 1-223, looked up, variant S14A)
Immediate early response gene …: MEVQKEAQRIMTLAVWKMYHSRMQRGGLRLHRSLQLSLVMRSARELYLSAKVEALEPEVSLPAALPSDPRLHPPREAESTAETATPDGEHPFPEPMDTQEAPTAEETSACCAPRPAKVSRKRRSSSLSDGGDAGLVPSKKARLEEKEEEEGASSEVADRLQPPPAQAEGAFPNLARVLQRRFSGLLNCSPAAPPTAPPACEAKPACRPADSMLNVLVRAVVAF
B10 returned an Experimental % binding under setting [2] of 83%.

B11: IER2 M23: IER2, M23 to alanine (protein, UniProt Q9BTL4 1-223, looked up, variant M23A)
Immediate early response gene …: B10 Immediate early response gene … with A14S, M23A
Take B11: under setting [2], the Experimental % binding was 94%.

B12: IER2 R25: IER2, R25 to alanine (protein, UniProt Q9BTL4 1-223, looked up, variant R25A)
Immediate early response gene …: B10 Immediate early response gene … with A14S, R25A
B12 displayed an Experimental % binding under setting [2] of 76%.

B13: IER2 W16: IER2, W16 to alanine (protein, UniProt Q9BTL4 1-223, looked up, variant W16A)
Immediate early response gene …: B10 Immediate early response gene … with A14S, W16A
Turning to B13, the Experimental % binding under setting [2] is 100%.

B14: IER2 Q24: IER2, Q24 to alanine (protein, UniProt Q9BTL4 1-223, looked up, variant Q24A)
Immediate early response gene …: B10 Immediate early response gene … with A14S, Q24A
B14 registered an Experimental % binding under setting [2] of 118%.

B15: IER2 Q35: IER2, Q35 to alanine (protein, UniProt Q9BTL4 1-223, looked up, variant Q35A)
Immediate early response gene …: B10 Immediate early response gene … with A14S, Q35A
As for B15, the Experimental % binding under setting [2] is 67%.

B16: IER2 H31: IER2, H31 to alanine (protein, UniProt Q9BTL4 1-223, looked up, variant H31A)
Immediate early response gene …: B10 Immediate early response gene … with A14S, H31A
As for B16, the Experimental % binding under setting [2] was 61%.

B17: IER2 V15: IER2, V15 to alanine (protein, UniProt Q9BTL4 1-223, looked up, variant V15A)
Immediate early response gene …: B10 Immediate early response gene … with A14S, V15A
For B17, the Experimental % binding under setting [2] is listed as 91%.

B18: IER2 S33: IER2, S33 to alanine (protein, UniProt Q9BTL4 1-223, looked up, variant S33A)
Immediate early response gene …: B10 Immediate early response gene … with A14S, S33A
Take B18: the Experimental % binding under setting [2] is given as 58%.

B19: IER2 R32: IER2, R32 to alanine (protein, UniProt Q9BTL4 1-223, looked up, variant R32A)
Immediate early response gene …: B10 Immediate early response gene … with A14S, R32A
Take B19: under setting [2], the Experimental % binding was determined as 70%.

B20: IER2 G27: IER2, G27 to alanine (protein, UniProt Q9BTL4 1-223, looked up, variant G27A)
Immediate early response gene …: B10 Immediate early response gene … with A14S, G27A
B20 registered an Experimental % binding under setting [2] of 77%.

B21: IER2 L30: IER2, L30 to alanine (protein)
chain: B10 Immediate early response gene … with A14S, L30A
Turning to B21, under setting [2], the Experimental % binding came to 81%.

B22: IER2 R29: IER2, R29 to alanine (protein, UniProt Q9BTL4 1-223, looked up, variant R29A)
Immediate early response gene …: B10 Immediate early response gene … with A14S, R29A
B22: under setting [2], the Experimental % binding turned out to be 90%.

B23: IER2 L28: IER2, L28 to alanine (protein, UniProt Q9BTL4 1-223, looked up, variant L28A)
Immediate early response gene …: B10 Immediate early response gene … with A14S, L28A
Turning to B23, the Experimental % binding under setting [2] amounted to 102%.

B24: IER2 S37: IER2, S37 to alanine (protein, UniProt Q9BTL4 1-223, looked up, variant S37A)
Immediate early response gene …: B10 Immediate early response gene … with A14S, S37A
Consider B24, for which the Experimental % binding under setting [2] is recorded as 62%.

B25: IER2 L36: IER2, L36 to alanine (protein, UniProt Q9BTL4 1-223, looked up, variant L36A)
Immediate early response gene …: B10 Immediate early response gene … with A14S, L36A
As for B25, the Experimental % binding under setting [2] amounted to 66%.

B26: IER2 K17: IER2, K17 to alanine (protein)
chain: B10 Immediate early response gene … with A14S, K17A
Under setting [2], B26 gave an Experimental % binding of 10%.

B27: IER2 L34: IER2, L34 to alanine (protein)
chain: B10 Immediate early response gene … with A14S, L34A
B27 displayed an Experimental % binding under setting [2] of 74%.

B28: IER2 G26: IER2, G26 to alanine (protein, UniProt Q9BTL4 1-223, looked up, variant G26A)
Immediate early response gene …: B10 Immediate early response gene … with A14S, G26A
With B28, the Experimental % binding under setting [2] is on record as 87%.

B29: IER2 Q8: IER2, Q8 to alanine (protein, UniProt Q9BTL4 1-223, looked up, variant Q8A)
Immediate early response gene …: B10 Immediate early response gene … with Q8A, A14S
B29: the Experimental % binding under setting [2] is given as 90%.
